This is an account of results in PMC4222533 (Biochemistry, 2014).

This assay addresses integrin αIIb cytoplasmic tail peptide (starting from W988). Description: ITC. Background: Isothermal titration calorimetry measures the heat released or taken up as one component is titrated into another.

B1: skelemin tandem IgC2 domains 4 and 5 with the interconnecting linker, C1354S (domain or fragment)
chain: DEEEMKRLLALSQEHKFPTVPTKSELAVEILEKGQVRFWMQAEKLSSNAKVSYIFNEKEIFEGPKYKMHIDRNTGIIEMFMEKLQDEDEGTYTFQIQDGKATGHSTLVLIGDVYKKLQKEAEFQRQEWIRKQGPHFAEYLSWEVTGESNVLLKCKVANIKKETHIVWYKDEREISVDEKHDFKDGICTLLITEFSKKDAGFYEVILKDDRGKDKSRLKLVD
modifications: uniformly 15N or 15N/13C labelled for NMR
Turning to B1, the affinity, expressed as Kd, was 14.2 ± 4.3 µM.
